± gives the uncertainty stated by the source.
Assay: amyloid nucleation score (Sup35N fusion, yeast selection) (log enrichment); library NNK3; higher = more nucleation; inactive = no reads after selection
Procedure, shortened: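 Sup35N fusions to peptides of 20 random codons were expressed in psi-negative yeast, induced 24 hours with 100 μM copper sulfate, and grown 7 days at 30°C on medium lacking adenine and uracil. Input and output plasmid inserts were sequenced by Illumina. The nucleation score is the DiMSum log enrichment of output over input reads, centred on the mode score of non-aggregating sequences. Sequences with under 100 input reads were excluded.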

Substance	amyloid nucleation score
KQCIFNISLCSS	0.008 ± 0.42
KQKMYTAVPKGIQNILEA	inactive
KRFGKMLLW	inactive
KRFTGSK	inactive
KRGMSHVSVCFIMRCFLYID	inactive
KRHYMGTAQGCMGIVLKVFY	inactive
KRLQWMYYL	inactive
KRMSKKALRLVVSYFSPS	inactive
KRNRRTISLMTKFIMGKPGY	inactive
KRSHY	inactive
KRSPKIQDL	inactive
KRSSA	inactive
KRVRGLALTQIY	0.159 ± 0.45
KSFRIMMLRSWMLRLLKYQL	inactive
KSFWVHMTGAFVCARYWCLP	0.97 ± 0.17
KSGPYAVRLSEISWCDVRAG	0.153 ± 0.88
KSGTCK	inactive
KSMATMSQIVPDSFSEFDWY	inactive
KSMIAGVTMWLLCTVSLSYN	inactive
KSMYWLYCTEWEHSNMHVFM	0.17 ± 0.68
KSVRNTAHLWHCVLTIYVYL	inactive
KSVYMHTGPGKGNRVVEKCM	inactive
KTCIVCMLHL	3.32 ± 0.068

Substance	amyloid nucleation score
KTLIRASWSLSC	inactive
KTRSAMRDLVVSFWYF	1.65 ± 0.075
KTSVEISN	inactive
KVFMGRCCWLCSPY	1.42 ± 0.1
KVGTVLWCFTCSAGHRECNG	2.75 ± 0.055
KVILPWKLWADGWRDY	inactive
KVRRGQLKIRS	inactive
KVSDKPHHKRGVGLDLMMMD	inactive
KVTFKYLLKSVSLGQGTT	0.341 ± 0.28
KWCKKKQFKSLDWLTYDI	inactive
KWKVAKVGDWQAAPTLGSHR	inactive
KWLMNSNFAWLI	inactive
KYEMTIPSSVLRALSNKHWL	-0.539 ± 1.4
KYITHLFFFILSERYCWFPM	-0.341 ± 0.56
KYKLTLYDNAVSGGDALHLR	inactive
KYLAFLQLCGAPMYLWTPPI	0.757 ± 0.3
KYLGG	inactive
KYNAIVLVYPKSADCVKTLM	0.387 ± 0.36
KYQLPRDNFS	inactive
KYSMTK	inactive
KYVVQPYGSCRWGLITVRAN	inactive
KYWDPQFP	inactive
LADFRGQSLTDEGCMWTSSG	inactive

Substance	amyloid nucleation score
LAITLRLLFVNIIFTDPDLY	inactive
LALCSTCFNLVYIICVGKKW	inactive
LAMHIALDSNRDKAFGVLNE	inactive
LARQFF	inactive
LASLTRLLDFMMSVENTYSA	inactive
LAVFFDRD	inactive
LAVFSEARNEGTTQFYYLLK	inactive
LCALTS	inactive
LCDFSLGGYSGNCYIFKMSV	0.739 ± 0.28
LCETCKNVARIYSFLIGMTD	inactive
LCGLERLKVMQWHSVPRKHI	inactive
LCGPSDLAT	0.096 ± 0.66
LCLFGLLYNIETFSIVVDYS	inactive
LCMAFNVIPQTSFLALKASC	inactive
LCRLLVSTWNSASSFFCRKL	inactive
LCRYRNSYICSGNIIWMCSL	inactive
LCTCTLCSLYV	inactive
LCVRFARMSGSAHLVESYVD	inactive
LCVRYDMSEGLRKGWWYGVG	inactive
LDCFCSPVKVTWH	0.146 ± 0.21
LDGMYHTVRICNSCF	inactive
LDGQFNNLYMYPSFYQEVAG	inactive
LDLDSNRFKVDLNDLYELVV	inactive

Substance	amyloid nucleation score
LDLSSYVHSTLEPGQWKRSR	inactive
LDMFHSEIIFLMWYRGWVNA	inactive
LDTLLVYHFRKERVLNTGVN	inactive
LDTSNMPTYGLKSEVSVIAR	inactive
LDVMTCNRLKVTVDFMCMNA	inactive
LEESFSKNLSKSFYIQ	inactive
LEFVY	0.238 ± 0.52
LEGGSITCLSPC	inactive
LELRYCLFADPMI	inactive
LELVYGKIYSDPSTFRGHLV	inactive
LETMN	inactive
LETNG	inactive
LEWERPS	inactive
LFASWEDFLASSRYWRLEKR	0.356 ± 0.39
LFCLKIKLEAERRYLQGLRH	1.72 ± 0.09
LFCRVWSFGVLMCFE	inactive
LFDFADSMVRQVRTDAKRLN	inactive
LFEPVIEILI	inactive
LFEWMRCMTVFMVGAAYAAT	inactive
LFILFSNGYTVGYNSDNRSF	0.601 ± 0.22
LFITSHREGDWWLSTVRIHF	0.367 ± 0.27
LFLDWALIFLV	inactive
LFLFESQTCDSRVQNCISFG	inactive

Substance	amyloid nucleation score
LFLGLIVVGTVLNELSMTNA	inactive
LFLVYGGYIFAQRKFAFNSS	inactive
LFMCMIFDCDIRIVNSVGCI	1.43 ± 0.14
LFNYLFLVP	inactive
LFPYMDCNSGTELFYGFIVQ	inactive
LFSMEKGEYGNRRGYAVYFL	1.74 ± 0.084
LFSNTRVSSGYRSRLLSRCL	inactive
LFSQAHGYRDVLGGFRVFWV	inactive
LFSSRYDLIDVNVRGVDYSQ	inactive
LFTSFYVSPYM	inactive
LFVIHAGMNSTSFFKNMMSC	inactive
LFVIYISDIAPTGYQVQNDI	inactive
LFVKMR	-0.219 ± 0.32
LFVMGRFVSFALFTWKTDNV	inactive
LFYGHVNLASYRVSNRSKTR	inactive
LGCSVTTVSV	inactive
LGDALAEVNQDHADSGYRVT	inactive
LGDDVFSLAFGDNFKDHKFH	inactive
LGESMRRVKVSVQIRIHMGQ	1.11 ± 0.16
LGFFCVIFVS	inactive
LGGTSNLMFGYMK	inactive
LGHGFWQFSYLG	inactive
LGIGVKYSTGWCFVIMSSAM	inactive

Substance	amyloid nucleation score
LGMSYVYTTGLQKQAASQ	inactive
LGNIGVELVDRCDRYIYQPD	0.627 ± 0.2
LGNSPVHST	inactive
LGRCFVFMRTVCFDSA	inactive
LGSAGYSSQGLWCLVLRVPL	inactive
LGSGEATE	inactive
LGVGMQRYMSWRRK	0.504 ± 0.29
LGWLLVTNWTSTYAGSLHDG	inactive
LGYISFGFPVEDNWVHLACD	inactive
LHDNRHYGNLTEAL	inactive
LHFVVFAYYKRLMDSQIC	inactive
LHGWFLNLLIFYAMRLRSVL	inactive
LHLNGAYMAFLIVMSCMHFS	inactive
LHVFSECRFIRSLLGPNGIF	inactive
LHYMYTYFTTKVLSSRIGGV	inactive
LIACSHSRNT	inactive
LICAW	inactive
LIFGYPVGKFTMMGLTSMWS	inactive
LIFPWDLRKGAHHPGLRSCI	inactive
LIIGHVFGFHGYVDWDDGTC	inactive
LIKVTS	inactive
LIKWFSFRWLVTILVIDQTY	inactive
LINAYQLLFQNHQKEMMFVT	inactive

Substance	amyloid nucleation score
LINNSEASLIHYIYGRGNVQ	-0.664 ± 1.9
LISCAMGRELTYRSNSRRGR	inactive
LITEGYAYFLNWVFRYISYW	inactive
LIVAFSLASLGLKFSQCSWA	-0.363 ± 0.96
LIVRLDPIFKKIKNK	1.27 ± 0.11
LIYANEYA	inactive
LIYCYMFMITAVGRACMPCR	inactive
LIYYCEHHARLSVLLDESSA	inactive
LKCFEMNYQYGRRLNNG	inactive
LKCSLLYCRCRPGYQIAGT	inactive
LKIWGRFITGETV	inactive
LKNGLYYHHYFTFLMAYIHQ	inactive
LKPQHSSGGSLSRMIYRPFL	2.18 ± 0.088
LKVKLANR	inactive
LKVLVD	inactive
LKVVSKVLYNSSYPVRYVLR	inactive
LLAWFHNCRLRLI	inactive
LLCGSCWFYTMGHVSPNKRI	0.862 ± 0.11
LLCMWFCKSRLPRCSKCCSR	inactive
LLCYWSLA	inactive
LLDENGGHYSSIRAISDGGI	inactive
LLDFVNGFYCFDFTGTFNIY	0.993 ± 0.15
LLDIC	inactive

— the supplement of paper PMC12042874
